The record followed here is US20250034594A1, “RNA-GUIDED GENOME RECOMBINEERING AT KILOBASE SCALE” (THE BOARD OF TRUSTEES OF THE LELAND STANFORD JUNIOR …, priority 2021, published 2025).

Type in all cases: cell-based
In one test the test system is gene editing with Cas9. Put plainly: Screen of 322 new SSAP proteins, gene editing activity with Cas9 (Table 5). Details: Cas9 with SSAP activity: scale not given here. Summed up: (§1)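 The 322 SSAP proteins were found in sequence data and then synthesized. Each was screened for gene editing activity when paired with Cas9 and with dCas9.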
Test [1] relates to gene editing with Cas9 and dCas9. Put plainly: Screen of 322 new SSAP proteins, activity across all experiments (Cas9 and dCas9, Table 5). More on the design: scale not given here. The method in brief: as §1
In the next test the test system is gene editing with dCas9. Put plainly: Screen of 322 new SSAP proteins, gene editing activity with dCas9 (Table 5). More on the design: dCas9 with SSAP activity: scale not given here. Summed up:
as §1

B1: SSAP_292: SEQ ID NO: 461; Paenibacillus rhizosphaerae (protein, listed as Paenibacillus rhizosphaerae)
chain: SSKLVEINSKLDSFLDAQHKAMPKGFNKTRFLQNSMSVLRDIEGLEQCDPKSVALVMLKGAFLGLDFFNKECYPVVYAGKVEFQTDYKGEVKLVKKYSTKPVREIYAKLVRQGDDFSEEIVAGSQTINFKPLPFNNGEIVGAFAVVNYVDGTMQYDTMSTEEIEKIKVNFSRKSKKTNEYSKAWVVTPGEMYKKTVLRRLCKTIDLDFDTIEQAQAFEDAADMDFNQDSKPQQQSPLNPMVIDVEYEEVKEEQADAAEQE
In the case of B1, in the test with gene editing with Cas9, the “Cas9 with SSAP activity” value is −4.432 and the “Cas9 with SSAP activity (normalized)” value is given as −0.752. The “Activity across all experiments” value in test [1] is given as −6.169. In the test with gene editing with dCas9, the “dCas9 with SSAP activity” value is recorded as −7.905 and the “dCas9 with SSAP activity (normalized)” value is given as −1.546.

B2: SSAP_78: SEQ ID NO: 247 (protein)
chain: RTDGTKEAGAAATAPTEGKAPAKAHKPADTIGAMIEKLKPQIERALPKHVTPDRMARMALTAIRNNPKLGQAEAVSLMGSIIQASQLGLEPNTPLGQCYIIPYNSKNGMQAQFQMGYKGIVDLAHRSGQYRQLTAHPVDEADEFRYSYGLNPDLVHVPAEKPSGKITHYYAVYHLTNGGFDFRVWSREKVEAHAKQYSKSFSSGPWQTNFDQMACKTVMIDLLRYAPKSVEIAKATSADNRTHTINPEDPDLNIDTIDGDFELEGEER
With B2, in the test on gene editing with Cas9, the “Cas9 with SSAP activity” value is given as −0.849 and the “Cas9 with SSAP activity (normalized)” value was −0.295. For the same molecule, the “Activity across all experiments” value in test [1] was −4.307. In addition, in the test with gene editing with dCas9, the “dCas9 with SSAP activity” value was −7.766 and the “dCas9 with SSAP activity (normalized)” value is on record as −2.216.

B3: SSAP_33: SEQ ID NO: 202 (protein)
chain: TTNQVVTHKNFFNAPNVQKSFDDVWKGAGVQFATSILSVIQGNASLKSASNESIMTSAMKAAVLNLPIEPSLGRAYLVPYKGQVQFQLGYKGLIELAQRSGKYKSINAGPVYKSQFVSYDPLFEELTLDFTQPQDEVIGYFASFSLLNGFRKLTYWTKAEVEAHGKKFSKTFGNGPWKTDFDAMARKTVLKHILSIYGPLSVEMQTGMQNDESENDNATRDIKTAEPVNADQQLLEDLMNVDTETGEILEEVSELKDNGELDLKYEDPNAR
For the molecule B3, in the test with gene editing with Cas9, the “Cas9 with SSAP activity” value was 1.307 and the “Cas9 with SSAP activity (normalized)” value is 0.578. The “Activity across all experiments” value in test [1] was −3.528. In addition, in the test with gene editing with dCas9, the “dCas9 with SSAP activity” value is recorded as −8.362 and the “dCas9 with SSAP activity (normalized)” value is −1.043.

B4: SSAP_124: SEQ ID NO: 293; Clostridium sp. AM58-1XD (protein, listed as Clostridium sp.)
chain: SVDVKNELEKRAAGTVNPAVKLTKNMTIVDMVRALEPEIKRALPTILTPERFMRMALSAINNTPELADCTPMSFIAALMNAAQLGMEPNTPLGQAYLIPYKNKGTLECQFQIGYKGLIDLAYRTGLIQVIQAQTVREFDSFEYQYGLDSRLTHRPGDGERGEITYIYGLFKLTNGGYGFEVSNKADMDAFAEKYSKSFGSRFSPWKENYEDMAKKTVIKRALKYAPVSSDFQKALSMDETIKSELSIDMSEIRNECQVEASGQEGAA
Take B4: in the test with gene editing with Cas9, the “Cas9 with SSAP activity” value is listed as −5.698 and the “Cas9 with SSAP activity (normalized)” value was −1.064. Moreover, in test [1], the “Activity across all experiments” value is −7.244. For the same molecule, in the test on gene editing with dCas9, the “dCas9 with SSAP activity” value is listed as −8.790.

B5: SSAP_230: SEQ ID NO: 399; Leuconostoc pseudomesenteroides (protein)
chain: ANEITLAKQLSSDKVVEQFAATAGESAKSFAKEVALTISGNPALQHAKLGTVIVEATKASALGLSLLPTVGEAYLVPYKGDAQFQLGYKGIVQLAMRSGQMKSFGAESVYEGENPKWDKYNQELVTDGEETGKIIGYYAFFTLVNGFKMAAYWPKEKVEAHRDRFSKSKKGPWSTDFDAMAKKTVLKSILQYAPKSSEMKRALAEDTQAEYVQAGIQDVTPEPANIEAPIETANAPEINAQEESLFGELSDVDKETAPNPFAQNLGGDN
modifications: Leuconostoc pseudomesenteroides
Take B5: in the test with gene editing with Cas9, the “Cas9 with SSAP activity” value came out at 0.548 and the “Cas9 with SSAP activity (normalized)” value was 0.321. Further, the “Activity across all experiments” value in test [1] is reported as −3.700. Also, in the test on gene editing with dCas9, the “dCas9 with SSAP activity” value was −7.949 and the “dCas9 with SSAP activity (normalized)” value was −1.164.

B6: SSAP_201: SEQ ID NO: 370; Streptomyces reniochalinae (protein, listed as Streptomyces reniochalinae)
chain: SQISNAVAKRDNSPGAMVQQYKADFSTVLPDHVKPDTWVRLAQGVLRRDKNLAQAAERNPGSLMTALLDCARLGHEPGTESFYLVPFGGEVQGIEGYRGVVERMYRAGAIASVKAEVVCQGDDFDYQPDMDKPRHRVDWFGDRGPIVGAYAYAIFKDGSTSRVAVINRAYIDKVKKESKGSDRATSPWMKWEEQMVLKTVAKRLEPWVPTSNEWRREQLRAAREVANEPTPPTTPAPPAPEQVDPDTGEVIDGELVDDTPTQ
Consider B6, for which, in the test with gene editing with Cas9, the “Cas9 with SSAP activity” value is recorded as −0.461 and the “Cas9 with SSAP activity (normalized)” value is reported as −0.195. For the same molecule, the “Activity across all experiments” value in test [1] is −4.249. Besides, in the test with gene editing with dCas9, the “dCas9 with SSAP activity” value is recorded as −8.036 and the “dCas9 with SSAP activity (normalized)” value was −1.510.

B7: SSAP_303: SEQ ID NO: 472; Paenibacillus sp. BK033 (protein, listed as Paenibacillus sp.)
chain: AANTQLITIHNNLEKLIEAKKDAMPQGFNKTRFIQNCMTVLQDTYGIEKCEPTTVARTLLKGAFLGLDFFNKECYAIPYGASMNFQTDYKGERKLAKKYSVRKVKDIYAKLVRAGDVFEENITDGQQTIQFAPVPFNNGDIVGAFAVVLFHDGGMLYETMSIAEMEHIKENYSKKSKDTGKFSKAWEVSTGEMYKKTVLRRLCKNIELDFDTIEQARAFEDAADVDFNKKTAPQQTSPLNVVEAEYEVVNDGSATEAQSE
Consider B7, for which, in the test with gene editing with Cas9, the “Cas9 with SSAP activity” value is on record as 1.686 and the “Cas9 with SSAP activity (normalized)” value turned out to be 2.052. Also, the “Activity across all experiments” value in test [1] is recorded as −3.683. In the test on gene editing with dCas9, the “dCas9 with SSAP activity” value is −9.053.

B8: SSAP_284: SEQ ID NO: 453; Paenibacillus sp. VMFN-D1 (protein, listed as Paenibacillus sp.)
chain: AKALLENKLQERAAGASTPSTQGTSLKALLNSPAIKKRFDELLDKRSAQYMTSIVNLYNSDAMLQKAEPMSVISSCIVAATLDLPVDKNLGYAWIVPYSGKAQFQLGYKGYIQLALRTGQYKAINVIEVYEGELVKWNPLTEALELDFEKRKSDAVIGYAGYFELINGFRKSVYWTREQIESHRKKFSKSDFGWKKDYDAMAKKTIIRNMLSKWGILSIEMQDAYSKEIEAIPPLNNENEEDPPIDLTPEDYRVGDEPQDGKEQGEMNFE
Turning to B8, in the test on gene editing with Cas9, the “Cas9 with SSAP activity” value was −1.673 and the “Cas9 with SSAP activity (normalized)” value is given as −1.388. Further, the “Activity across all experiments” value in test [1] is given as −4.873. Besides, in the test on gene editing with dCas9, the “dCas9 with SSAP activity” value is on record as −8.073 and the “dCas9 with SSAP activity (normalized)” value is on record as −1.172.

B9: SSAP_261: SEQ ID NO: 430; Peptoniphilus grossensis (protein, listed as Peptoniphilus grossensis)
chain: TNIQKQENRALSPVNQMKNLLKNQGMQNLFADALKENKDRFLASIIDLYNGDTSLQDCNPKEVVMEALKAATLNLPINKNLGYAYIVPYNSKGTTRPQFQIGYKGYIQMAQRSGQYKALNAGILYEGMEVKRDFLRGTFEIIGEPKSDKVMGYFAYFQLLNGYEKAIYMTKDEVTEHAERYSQSYGSKYSPWKKQFDEMGQKTVIKKLLSKYGVLTTEFQDAVKEEEDREVLRATENNAMLEMTNPDEEEETIEVNPETGEIIEDDVKAPF
For the molecule B9, in the test on gene editing with Cas9, the “Cas9 with SSAP activity” value is on record as −0.535 and the “Cas9 with SSAP activity (normalized)” value is −0.174. Also, in test [1], the “Activity across all experiments” value is reported as −4.137. For the same molecule, in the test with gene editing with dCas9, the “dCas9 with SSAP activity” value is −7.740 and the “dCas9 with SSAP activity (normalized)” value is −1.199.

B10: SSAP_207: SEQ ID NO: 376; Mycobacterium sp. 1245499.0 (protein, listed as Mycobacterium sp.)
chain: TTQPEYKPVAQGADKQMTTGKLLKMLEPEIGRALPKGMDPDRICRLVMTEVRKNPMLTQCTQESFAGALLTASALGLEPGVNGEAWLVPYRDRKRGIVECQFIMGYNGVAKLFWQSPHADRLDAQLVCANDHFRYVKGLSPILEHVESDGDRGDPIAYYAIVGVKGAQPMWDVFKPEAIAQLRGGRVGTKGDIDDPQRWMERKTALKQVLKLAPKSTRLDLAIRADERSGSDLYKSQGMEVHAIEPGFIETEAEPETQEQ
For B10, in the test on gene editing with Cas9, the “Cas9 with SSAP activity” value is −4.938 and the “Cas9 with SSAP activity (normalized)” value is reported as −0.798. The “Activity across all experiments” value in test [1] was −6.496. Further, in the test on gene editing with dCas9, the “dCas9 with SSAP activity” value was −8.053 and the “dCas9 with SSAP activity (normalized)” value is −1.345.

B11: SSAP_312: SEQ ID NO: 481; Gallionellaceae bacterium CG1_02_56_997 (protein)
chain: GRKEVERIRDGSRGYQAAKKYKKESTWDTDFVAMGLKTAIRRICKFLPKSPELATALAMDEQAGRQNLNLDDVINGSYTPVVDKDTGEIVDVADGGKTGNSNAATSTKLEKLEKIVAALRDANSVEALDEIYIRAEGDLDDANLEIAMREYRKCKDAISNSLI
modifications: Gallionellaceae bacterium CG1_02_56_997
For B11, in the test with gene editing with Cas9, the “Cas9 with SSAP activity” value was −0.905 and the “Cas9 with SSAP activity (normalized)” value is on record as −0.436. The “Activity across all experiments” value in test [1] is given as −0.501. For the same molecule, in the test with gene editing with dCas9, the “dCas9 with SSAP activity” value is listed as −0.097 and the “dCas9 with SSAP activity (normalized)” value is given as −0.073.

B12: SSAP_185: SEQ ID NO: 354; Pirellula sp. SH-Sr6A (protein, listed as Pirellula sp.)
chain: SEATKEAKPETAIAKKPNGIKDWLKSDALKTQIASVAPKHMAPERVMRIALNAVSRTPKLADCTPESFMRCLLDLSSWGLEPDGRHAHLIPYGTECTLVLDYKGLVTLAYRSGWVKKIHADVVFEGDIFVYSLGTVCQHIPWEFRDDANKPEHKGHFRAAYCVVTMADGIEKHEVMTASEIDAIKAKSRSGNSGPWKDHYTEMAKKTVYRRASKWLPLSPEQADAMERDDDRIIDAVSVAVTQRLSKAAMPLIGANETGDTE
As to B12, in the test with gene editing with Cas9, the “Cas9 with SSAP activity” value is recorded as −1.825 and the “Cas9 with SSAP activity (normalized)” value is reported as −0.708. The “Activity across all experiments” value in test [1] is reported as −5.013. Moreover, in the test on gene editing with dCas9, the “dCas9 with SSAP activity” value was −8.201 and the “dCas9 with SSAP activity (normalized)” value was −2.012.
